Source: patent US20240352438A1, “MEANS AND METHODS FOR DETOXIFYING OCHRATOXIN A” (DSM Austria GmbH, priority 2021, published 2024)

B1: 101 (protein)
chain: MTTRTRILTAFLSLLAANACAADAAPAAPHTVVLRAARMFDGASGKLVDHPQLTIVGNKIVRIAQGDKAEVPAGAEVVDLGDATLLPGFIDAHVHLSGQSSDNWYGDFFDNIMRFPAEQALYGAYYARITLEAGFTSVRDVGSTDWVALGLRNAIDAGKVPGPRMLVSNYAVGSTGGHADQDPIPPHKLPLAGPLQGVCNGPEECRAAVRYQIKYGANVIKFMPSGGVLSLSDPVDAPELSQDEMNAVIGESHAWGRKVAAHAHGDKAAKMAVAAGVDSIEHGSFIEDDTLRAMKAKNVYLVPTISAIAHVEEKIGTFPPVIAEKGRAAAAHLRQTFRHAVQIGVPIALGTDAGVGAHGSNAREFRYMVENGLTPAQALLAGTANAARLLGTFDRVGTLEAGKLADVVAVPGNPIADITVTERPLFVMKDGVVVRRDAVR
modifications: exemplary polypeptide
B2: 110 (protein)
chain: MTTRTRILTAFLSLLAANACAADAAPAAPHTVVLRAARMFDGASGKLVDHPQLTIVGNKIVRIAQGDKAEVPAGAEVVDLGDATLLPGFIDAHVHLSGQSSDNWYGDFFDNMMRFPAEQALYGAYYARITLEAGFTSVRDVGSTDWVALGLRNAIDAGKVPGPRMLVSNYAVGSTGGHADQDPIPPHKLPLAGPLQGVCNGPEECRAAVRYQIKYGANVIKFMPSGGVLSLSDPVDAPELSQDEMNAVIGESHAWGRKVAAHAHGDKAAKMAVAAGVDSIEHGSFIEDDTLRAMKAKNVYLVPTISAIAHVEEEIGTFPPVIAEKGRAAAAHLRQTFRHAVQIGVPIALGTDAGVGAHGSNAREFRYMVENGLTPAQALLAGTANAARLLGTFDRVGTLEAGKLADVVAVPGNPIADITVTERPLFVMKDGVVVRRDAVR
modifications: exemplary polypeptide
B3: 129 (protein)
chain: MTTRTRILTAFLSLLAANACAADAAPAAPHTVVLRAARMFDGASGKLVDHPQLTIVGNKIVRIAQGDKAEVPAGAEVVDLGDATLLPGFIDAHVHLSGQCSDNWYGDFFDNMMRFPAEQALYGAYYARITLEAGFTSVRDVGSTDWVALGLRNAIDAGKVPGPRMLVSNYAVGSTGGHADQDPIPPHKLPLAGPLQGVCNGPEECRAAVRYQIKYGANVIKFMPSGGVLSLSDPVDAPELSQDEMNAVIGESHAWGRKVAAHAHGDKAAKMAVAAGVDSIEHGSFIEDDTLRAMKAKNVYLVPTISAIAHVEEKIGCFPPVIAEKGRAAAAHLRQTFRHAVQIGVPIALGTDAGVGAHGSNAREFRYMVENGLTPAQALLAGTANAARLLGTFDRVGTLEAGKLADVVAVPGNPIADITVTERPLFVMKDGVVVRRDAVR
modifications: exemplary polypeptide
B4: 109 (protein)
chain: MTTRTRILTAFLSLLAANACAADAAPAAPHTVVLRAARMFDGASGKLVDHPQLTIVGNKIVRIAQGDKAEVPAGAEVVDLGDATLLPGFIDAHVHLSGQSSDNWYGDFFDNMMRFPAEQALYGAYYARITLEAGFTSVRDVGSTDWVALGLRNAIDAGKVPGPRMLVSNYAVGSTGGHADQDPIPPHKLPLAGPLQGVCNGPEECRAAVRYQIKYGANVIKFMPSGGVLSLSDPVDAPELSQDEMNAVIGESHAWGRKVAAHAHGDKAAKMAVAAGVDSIEHGSFIEDDTLRAMKAKNVYLVPTISAIAHVEEQIGTFPPVIAEKGRAAAAHLRQTFRHAVQIGVPIALGTDAGVGAHGSNAREFRYMVENGLTPAQALLAGTANAARLLGTFDRVGTLEAGKLADVVAVPGNPIADITVTERPLFVMKDGVVVRRDAVR
modifications: exemplary polypeptide
B5: 104 (protein)
chain: MTTRTRILTAFLSLLAANACAADAAPAAPHTVVLRAARMFDGASGKLVDHPQLTIVGNKIVRIAQGDKAEVPAGAEVVDLGDATLLPGFIDAHVHLSGQSSDNWYGDFFDNMMRFPAEQALYGAYYARITLEAGFTSVRDVGSTDWVALGLRNAIDAGKVPGPRMLVSNYAVGSTGGHADQDPFPPHKLPLAGPLQGVCNGPEECRAAVRYQIKYGANVIKFMPSGGVLSLSDPVDAPELSQDEMNAVIGESHAWGRKVAAHAHGDKAAKMAVAAGVDSIEHGSFIEDDTLRAMKAKNVYLVPTISAIAHVEEKIGTFPPVIAEKGRAAAAHLRQTFRHAVQIGVPIALGTDAGVGAHGSNAREFRYMVENGLTPAQALLAGTANAARLLGTFDRVGTLEAGKLADVVAVPGNPIADITVTERPLFVMKDGVVVRRDAVR
modifications: exemplary polypeptide
B6: 126 (protein)
chain: MTTRTRILTAFLSLLAANACAADAAPAAPHTVVLRAARMFDGASGKLVDHPQLTIVGNKIVRIAQGDKAEVPAGAEVVDLGDATLLPGFIDAHVHLSGQSSDNWYGDFFDNMMRFPAEQALYGAYYARITLEAGFTSVRDVGSTDWVALGLRNAIDAGKVPGPRMLVSNYAVGSTGGHADQDPIPPHKLPLAGPLQGVCNGPEECRAAVRYQIKYGANVIKFMPSGGVLSLSDPVDAPELSQDEMNAVIGESEAWGRKVAAHAHGDKAAKMAVAAGVRSIEHGSFIEDDTLRAMKAKNVYLVPTISAIAHVEEKIGTFPPVIAEKGRAAAAHLRQTFRHAVQIGVPIALGTDAGVGAHGSNAREFRYMVENGLTPAQALLAGTANAARLLGTFDRVGTLEAGKLADVVAVPGNPIADITVTERPLFVMKDGVVVRRDAVR
modifications: exemplary polypeptide
B7: 133 (protein)
chain: MTTRTRILTAFLSLLAANACAADAAPAAPHTVVLRAARMFDGASGKLVDHPQLTIVGNKIVRIAQGDKAEVPAGAEVVDLGDATLLPGFIDAHVHLSGQSSDNWYGDFFDNMMRFPAEQALYGAYYARITLEAGFTSVRDVGSTDWVALGLRNAIDAGKVPGPRMLVSNYAVGSTGGHADQDPIPPHKLPLAGPLQGVCNGPEECRAAVRYQIKYGANVIKFMPSGGVLSLSDPVDAPELSQDEMNAVIGESHAWGRKVAAHAHGDKAAKMAVAAGVDSIEHGSFIEDDTLRAMKAKNVYLVPTISVIAHVEEKIGTFPPVIAEKGRAAAAHLRQTFRHAVQIGVPIALGTDAGVGAHGSNAREFRYMVENGLTPAQALLAGTANAARLLGTFDRVGTLEAGKLADVVAVPGNPIADITVTERPLFVMKDGVVVRRDAVR
modifications: exemplary polypeptide
B8: 117 (protein)
chain: MTTRTRILTAFLSLLAANACAADAAPAAPHTVVLRAARMFDGASGKLVDHPQLTIVGNKIVRIAQGDKAEVPAGAEVVDLGDATLLPGFIDAHVHLSGQSSDNWYGDYFDNMMRFPAEQALYGAYYARITLEAGFTSVRDVGSTDWVALGLRNAIDAGKVPGPRMLVSNYAVGSTGGHADQDPIPPHKLPLAGPLQGVCNGPEECRAAVRYQIKYGANVIKFMPSGGVLSLSDPVDAPELSQDEMNAVIGESHAWGRKVAAHAHGDKAAKMAVAAGVDSIEHGSFIEDDTLRAMKAKNVYLVPTISAIAHVEEKIGTFPPVIAEKGRAAAAHLRQTFRHAVQIGVPIALGTDAGVGAHGSNAREFRYMVENGLTPAQALLAGTANAARLLGTFDRVGTLEAGKLADVVAVPGNPIADITVTERPLFVMKDGVVVRRDAVR
modifications: exemplary polypeptide
B9: 102 (protein)
chain: MTTRTRILTAFLSLLAANACAADAAPAAPHTVVLRAARMFDGASGKLVDHPQLTIVGNKIVRIAQGDKAEVPAGAEVVDLGDATLLPGFIDAHVHLSGQSSDNWYGDFFDNWMRFPAEQALYGAYYARITLEAGFTSVRDVGSTDWVALGLRNAIDAGKVPGPRMLVSNYAVGSTGGHADQDPIPPHKLPLAGPLQGVCNGPEECRAAVRYQIKYGANVIKFMPSGGVLSLSDPVDAPELSQDEMNAVIGESHAWGRKVAAHAHGDKAAKMAVAAGVDSIEHGSFIEDDTLRAMKAKNVYLVPTISAIAHVEEKIGTFPPVIAEKGRAAAAHLRQTFRHAVQIGVPIALGTDAGVGAHGSNAREFRYMVENGLTPAQALLAGTANAARLLGTFDRVGTLEAGKLADVVAVPGNPIADITVTERPLFVMKDGVVVRRDAVR
modifications: exemplary polypeptide
B10: 118 (protein)
chain: MTTRTRILTAFLSLLAANACAADAAPAAPHTVVLRAARMFDGASGKLVDHPQLTIVGNKIVRIAQGDKAEVPAGAEVVDLGDATLLPGFIDAHVHLSGQSSDNWYGDFFDNMQRFPAEQALYGAYYARITLEAGFTSVRDVGSTDWVALGLRNAIDAGKVPGPRMLVSNYAVGSTGGHADQDPIPPHKLPLAGPLQGVCNGPEECRAAVRYQIKYGANVIKFMPSGGVLSLSDPVDAPELSQDEMNAVIGESHAWGRKVAAHAHGDKAAKMAVAAGVDSIEHGSFIEDDTLRAMKAKNVYLVPTISAIAHVEEKIGTFPPVIAEKGRAAAAHLRQTFRHAVQIGVPIALGTDAGVGAHGSNAREFRYMVENGLTPAQALLAGTANAARLLGTFDRVGTLEAGKLADVVAVPGNPIADITVTERPLFVMKDGVVVRRDAVR
modifications: exemplary polypeptide

Assay: OTA detoxification activity assay (specific activity, fluorescence reduction ex/em 390/450 nm)
Assay type: biochemical
Conditions: SEQ ID NO: 1 = 100%
Procedure: To determine the specific activity of recombinant target polypeptides produced e.g. as described in Example 2 above in units per liter (U/L), ochratoxin A (OTA) detoxification activity assays were performed. One unit is defined as the amount of enzyme necessary for degradation of 1 μmol or OTA in 1 min when using a starting OTA concentration of […].
OTA detoxification activity assays were set up in a final volume of the reaction mixture of […], containing the recombinant enzyme preparation (preferably diluted to yield a volumetric activity of 1-10 mU/L), and 200 ng/mL OTA in 100 mM sodium phosphate buffer.
Specific activities were determined at pH 6.0 and pH 7.5. As soon as all components of the reaction mixture were mixed, OTA degradation was followed at 37° C. on a fluorescence spectrophotometer (BioTek Synergy H1 MFD Multimode microplate reader) by following the reduction in fluorescence at ex/em 390 nm/450 nm. For work performed at pH 6.0 and 7.5, a 100 mM sodium phosphate buffer was used.
For calculation of the specific activity, the initial linear part of the recorded fluorescence reduction curve was used. In addition to the fluorescence-based method described above, OTA degradation was also determined by using the HPLC-MS method as described by Dellafiora et al. 2020, Toxins 12, 258, essentially confirming the fluorescence-based results. Genes encoding either of the indicated SEQ ID NOs are expressed as described herein and the specific activities for the obtained polypeptide preparation are exemplarily shown in Table 8. Analogously, enzymatic activities using either ochratoxin B, C or TA as substrate or can be found.

| Molecule | Specific OTA detoxification activities in % compared to the enzyme of SEQ ID NO: 1, pH 6.0 | Specific OTA detoxification activities in % compared to the enzyme of SEQ ID NO: 1, pH 7.5 |
| --- | --- | --- |
| B1 | 82% | 89% |
| B2 | 33% | 48% |
| B3 | 51% | 83% |
| B4 | 74% | 107% |
| B5 | 102% | 71% |
| B6 | 63% | 75% |
| B7 | 23% | 27% |
| B8 | 40% | 80% |
| B9 | 50% | 89% |
| B10 | 26% | 22% |
